Experimental findings from patent US20250236642A1 (NEC, published 2025) are described below.

The target in one assay is T1, HLA-A*24:02 molecule.
T1 construct: MHC class I molecule on C1R-A24 cells, endogenous peptide and b2m stripped at pH 3.3, purified b2m added back; also called product of an HLA-A*24:02 gene; allele A*24:02
The assay can be described thus: flow cytometry, C1R-A24 cells.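 Note: Read-out was the amount of peptide–MHC complex on each cell, taken as the fluorescence intensity of a bound fluorescent antibody.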

Another assay concerns the target T2, HLA-A*02:01 molecule.
T2 construct: MHC class I molecule on T2 cells (ATCC); also called product of an HLA-A*02:01 gene; allele A*02:01
The assay can be described thus: flow cytometry, T2 cells.

Excerpt for HLA-A*24:02 molecule: Thereafter, the number of MHC-peps for each C1R-A24 cell (proportional to a fluorescence intensity of the fluorescent antibody) was quantitatively measured using a fluorescence cell analyzer FACScan (Becton-Dickinson).

B1: peptide of SEQ ID NO: 26 (peptide)
peptide: ALRPAPALL
notes: synthetic 9-mer derived from EVC1
Take B1: the “log10 Kd (M)” value in the assay with HLA-A*24:02 molecule was -6.4. In the assay with HLA-A*02:01 molecule, the “log Kd” value is -6.11.

B2: peptide of SEQ ID NO: 15 (peptide)
peptide: VLLQQFQTA
notes: synthetic 9-mer derived from EVC2
Regarding B2, the “log10 Kd (M)” value in the assay with HLA-A*24:02 molecule was -5.55. For the same molecule, in the assay with HLA-A*02:01 molecule, the “log Kd” value was -4.71.

B3: peptide of SEQ ID NO: 24 (peptide)
peptide: MLPQTPSHL
notes: synthetic 9-mer derived from c-Myb
Take B3: the “log10 Kd (M)” value with HLA-A*24:02 molecule was -7.14. Further, the “log Kd” value with HLA-A*02:01 molecule is -5.58.

B4: peptide of SEQ ID NO: 23 (peptide)
peptide: LLNPNRQTI
notes: synthetic 9-mer derived from CADM1
For B4, in the assay with HLA-A*24:02 molecule, the “log10 Kd (M)” value was -6.22. In addition, the “log Kd” value in the assay with HLA-A*02:01 molecule was -5.24.

B5: peptide of SEQ ID NO: 19 (peptide)
peptide: VMSHHGEKL
notes: synthetic 9-mer derived from Helios; also called A13
On to B5, for which the “log10 Kd (M)” value with HLA-A*24:02 molecule is -6.1. Further, the “log Kd” value with HLA-A*02:01 molecule was -5.08.

B6: peptide of SEQ ID NO: 14 (peptide)
peptide: SLVLTWAAL
notes: as for B2
With B6, in the assay with HLA-A*24:02 molecule, the “log10 Kd (M)” value was -5.31. In addition, the “log Kd” value in the assay with HLA-A*02:01 molecule is -5.63.
